# In the Immune Epitope Database (IEDB):
# What was measured:
# Experiment in all cases: IEDB peptide-MHC binding, purified MHC/competitive/radioactivity; filed as Kd, often an IC50 or EC50 that approximates it; ≥ and ≤ were set here for values at or beyond the usual limits of such assays
# HLA-B*08:01 = molecular target: HLA-B*08:01
# HLA-A*30:01 = molecular target: HLA-A*30:01
# HLA-A*32:01 = molecular target: HLA-A*32:01
# HLA-A*26:01 = molecular target: HLA-A*26:01
# HLA-A*29:02 = molecular target: HLA-A*29:02
# HLA-A*01:01 = molecular target: HLA-A*01:01
# HLA-A*23:01 = molecular target: HLA-A*23:01
# HLA-A*30:02 = molecular target: HLA-A*30:02
# HLA-A*24:02 = molecular target: HLA-A*24:02
# HLA-B*44:02 = molecular target: HLA-B*44:02
# HLA-B*40:01 = molecular target: HLA-B*40:01
# HLA-B*44:03 = molecular target: HLA-B*44:03
# HLA-B*51:01 = details: source organism: Dengue virus 1 Brazil/97-11/1997
# [1] = source organism: Vaccinia virus WR
# [2] = source organism: Dengue virus 1 Brazil/97-11/1997
# [3] = source organism: SARS coronavirus Tor2
# [4] = source organism: Dengue virus 2 Jamaica/1409/1983
# [5] = source organism: Dengue virus 4 Philippines/H241/1956
# [6] = source organism: Mammarenavirus machupoense
# [7] = source organism: Vaccinia virus Copenhagen
# [8] = source organism: Dengue virus 3 Martinique/1243/1999
# [9] = source organism: Mammarenavirus lassaense
# [10] = source organism: Mammarenavirus choriomeningitidis
# [11] = source organism: Mammarenavirus juninense
# [12] = source organism: Mammarenavirus caliense
# [13] = source organism: Dengue virus 2 Peru/IQT2913/1996
sequence,measurement,setting,value
RVRNIIASI,Kd,HLA-B*08:01; [1],21.7 nM
same,Kd,HLA-A*30:01; [1],0.103 nM
same,Kd,HLA-A*32:01; [1],1.04 nM
FQPHQLWTTL,Kd,HLA-A*32:01; [2],761 nM
AYSNRNRFL,Kd,HLA-A*26:01; [3],≥ 77900 nM
same,Kd,HLA-A*29:02; [3],6640 nM
same,Kd,HLA-A*01:01; [3],≥ 78100 nM
same,Kd,HLA-A*23:01; [3],658 nM
same,Kd,HLA-A*30:02; [3],≥ 54700 nM
same,Kd,HLA-A*24:02; [3],92.2 nM
RVYVGNVAW,Kd,HLA-A*32:01; [1],1.08 nM
ETWALRHPGF,Kd,HLA-A*26:01; [2],666 nM
same,Kd,HLA-A*30:01; [2],1900 nM
same,Kd,HLA-A*01:01; [2],≥ 41200 nM
CETCVYNMM,Kd,HLA-B*44:02; [4],92.2 nM
same,Kd,HLA-B*40:01; [4],52.1 nM
LVSTQEFRY,Kd,HLA-A*26:01; [3],1760 nM
same,Kd,HLA-A*29:02; [3],6.84 nM
same,Kd,HLA-A*01:01; [3],30.8 nM
same,Kd,HLA-A*23:01; [3],10900 nM
same,Kd,HLA-A*30:02; [3],5.95 nM
same,Kd,HLA-A*24:02; [3],12700 nM
AERTGEPDY,Kd,HLA-B*44:02; [5],391 nM
same,Kd,HLA-B*44:03; [5],851 nM
CGDPSSLDY,Kd,HLA-A*26:01; [6],≥ 74600 nM
same,Kd,HLA-A*29:02; [6],4730 nM
same,Kd,HLA-A*01:01; [6],6.78 nM
same,Kd,HLA-A*23:01; [6],≥ 77700 nM
same,Kd,HLA-A*30:02; [6],870 nM
same,Kd,HLA-A*24:02; [6],≥ 77500 nM
YSIFLIFSI,Kd,HLA-A*32:01; [7],951 nM
KSYAQMWQLM,Kd,HLA-A*32:01; [2],89.9 nM
TEMGRLPTFM,Kd,HLA-B*44:02; [4],11.6 nM
same,Kd,HLA-B*44:03; [4],167 nM
METLLLLGLM,Kd,HLA-B*44:02; [8],62.4 nM
same,Kd,HLA-B*40:01; [8],1020 nM
same,Kd,HLA-B*44:03; [8],2650 nM
HMLEFLYSF,Kd,HLA-A*32:01; [1],0.296 nM
KTWGKAKML,Kd,HLA-A*32:01; [4],39.2 nM
PSSVAARGY,Kd,HLA-A*01:01; [5],200 nM
same,Kd,HLA-A*30:02; [5],3230 nM
ESDGKPQKV,Kd,HLA-A*26:01; [9],≥ 77900 nM
same,Kd,HLA-A*29:02; [9],≥ 78900 nM
same,Kd,HLA-A*01:01; [9],188 nM
same,Kd,HLA-A*23:01; [9],≥ 77700 nM
same,Kd,HLA-A*30:02; [9],≥ 76900 nM
same,Kd,HLA-A*24:02; [9],≥ 77500 nM
RQIFIHYSV,Kd,HLA-A*32:01; [7],1.04 nM
EGFMRKQKY,Kd,HLA-A*26:01; [10],≥ 77900 nM
same,Kd,HLA-A*29:02; [10],≥ 78900 nM
same,Kd,HLA-A*01:01; [10],≥ 49600 nM
same,Kd,HLA-A*23:01; [10],≥ 56100 nM
same,Kd,HLA-A*30:02; [10],≥ 53500 nM
same,Kd,HLA-A*24:02; [10],≥ 77500 nM
FFTYLCGFI,Kd,HLA-A*26:01; [3],≥ 77900 nM
same,Kd,HLA-A*29:02; [3],822 nM
same,Kd,HLA-A*01:01; [3],≥ 43100 nM
same,Kd,HLA-A*23:01; [3],13700 nM
same,Kd,HLA-A*30:02; [3],≥ 78900 nM
same,Kd,HLA-A*24:02; [3],18800 nM
MYASALVLL,Kd,HLA-A*26:01; [3],4620 nM
same,Kd,HLA-A*29:02; [3],≥ 22500 nM
same,Kd,HLA-A*01:01; [3],≥ 66000 nM
same,Kd,HLA-A*23:01; [3],≥ 46400 nM
same,Kd,HLA-A*30:02; [3],≥ 33500 nM
same,Kd,HLA-A*24:02; [3],≥ 65300 nM
NTSANLSLA,Kd,HLA-A*01:01; [5],1350 nM
KAEVSMHEV,Kd,HLA-A*26:01; [11],≥ 77900 nM
same,Kd,HLA-A*29:02; [11],≥ 78900 nM
same,Kd,HLA-A*01:01; [11],17500 nM
same,Kd,HLA-A*23:01; [11],≥ 68600 nM
same,Kd,HLA-A*30:02; [11],≥ 51900 nM
same,Kd,HLA-A*24:02; [11],≥ 77500 nM
PYENLLYKI,Kd,HLA-A*29:02; [12],≥ 52400 nM
same,Kd,HLA-A*23:01; [12],9.86 nM
same,Kd,HLA-A*24:02; [12],253 nM
RYWYLNHTV,Kd,HLA-A*26:01; [9],≥ 77900 nM
same,Kd,HLA-A*29:02; [9],≥ 38600 nM
same,Kd,HLA-A*01:01; [9],≥ 28200 nM
same,Kd,HLA-A*23:01; [9],15.3 nM
same,Kd,HLA-A*30:02; [9],0.603 nM
same,Kd,HLA-A*24:02; [9],76.8 nM
STLIFFVII,Kd,HLA-A*32:01; [1],17.8 nM
HTSSMRGVY,Kd,HLA-A*26:01; [3],4.78 nM
same,Kd,HLA-A*29:02; [3],8.21 nM
same,Kd,HLA-A*01:01; [3],85.2 nM
same,Kd,HLA-A*23:01; [3],≥ 77800 nM
same,Kd,HLA-A*30:02; [3],0.131 nM
same,Kd,HLA-A*24:02; [3],≥ 77600 nM
TELRYSWKTW,Kd,HLA-B*44:02; [13],7.9 nM
same,Kd,HLA-B*44:03; [13],33 nM
same,Kd,HLA-A*32:01; [13],2420 nM
SEMIIPKNFA,Kd,HLA-B*44:02; [4],12 nM
same,Kd,HLA-B*40:01; [4],8440 nM
same,Kd,HLA-B*44:03; [4],25 nM
IAFLRFLAI,Kd,HLA-B*08:01; [2],1.26 nM
same,Kd,HLA-B*51:01,9.53 nM
KTWMINIMI,Kd,HLA-A*32:01; [1],≥ 77800 nM
YENLKYTVII,Kd,HLA-B*40:01; [8],2.82 nM
